Patent US10429300B2, “Surface plasmon resonance approach to monitor protein-ligand interactions” (The Johns Hopkins University, priority 2015, dated 2019)

Assays:
[1] = system: rNav1.2a/Kv2.1 VSD IV chimera containing the R1629A/L1630A substitutions; type: cell-based, rat
Excerpt: The DNA sequence of rat (r)Nav1.2a (provided by A. Goldin, University of California, Irvine, Irvine, Calif.), rKv2.1 (provided by K. J. Swartz, National Institutes of Health), and the rNav1.2a/Kv2.1 VSD II or IV chimera was confirmed by automated DNA sequencing, and cRNA was synthesized using T7 polymerase (mMessage mMachine™ kit; Life Technologies) after linearizing the DNA with appropriate restriction enzymes. Channels were expressed in Xenopus oocytes (obtained from Xenopus 1) and studied after a 1-d incubation after cRNA injection (incubated at 17° C. in 96 mM NaCl, 2 mM KCl, 5 mM HEPES, 1 mM MgCl2, 1.8 mM CaCl2, and 50 μg/ml gentamycin, pH 7.6 with NaOH) using two-electrode voltage-clamp recording techniques (OC-725C; Warner Instruments) with a 150-μl recording chamber. Data were filtered at 4 kHz and digitized at 20 kHz using pClamp™ 10 software (Molecular Devices). […] For all channels, voltage-activation relationships were recorded in the absence and presence of toxin. The ratio of currents (I/I0) recorded in the presence (I) and absence (I0) of toxin was calculated for voltages typically ranging from −140 to 10 cmV, depending on the construct. […] The apparent equilibrium dissociation constant (apparent KD) for Kv channels was calculated according to KD=((1/(1c−cFu^1/4))c−c1)[toxin], assuming four independent toxin-binding sites per channel. […]

[2] = molecular target: rNav1.2a/Kv2.1 VSD IV chimera L1630A; details: L1630A substitution; read-out: apparent KD; cited from earlier work
[3] = molecular target: rNav1.2a/Kv2.1 VSD IV chimera R1629A; details: R1629A substitution; read-out: apparent KD; cited from earlier work
Chain of rNav1.2a/Kv2.1 VSD IV chimera R1629A (P04775 1605-1636 R1629A limits assumed): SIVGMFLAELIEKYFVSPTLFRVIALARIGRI

rNav1.2a = assay: Two-electrode voltage-clamp, rNav1.2a expressed in Xenopus oocytes; type: cell-based, rat; details: 100 nM toxin
Excerpt: The DNA sequence of rat (r)Nav1.2a (provided by A. Goldin, University of California, Irvine, Irvine, Calif.), rKv2.1 (provided by K. J. Swartz, National Institutes of Health), and the rNav1.2a/Kv2.1 VSD II or IV chimera was confirmed by automated DNA sequencing, and cRNA was synthesized using T7 polymerase (mMessage mMachine™ kit; Life Technologies) after linearizing the DNA with appropriate restriction enzymes. Channels were expressed in Xenopus oocytes (obtained from Xenopus 1) and studied after a 1-d incubation after cRNA injection (incubated at 17° C. in 96 mM NaCl, 2 mM KCl, 5 mM HEPES, 1 mM MgCl2, 1.8 mM CaCl2, and 50 μg/ml gentamycin, pH 7.6 with NaOH) using two-electrode voltage-clamp recording techniques (OC-725C; Warner Instruments) with a 150-μl recording chamber. Data were filtered at 4 kHz and digitized at 20 kHz using pClamp™ 10 software (Molecular Devices). Microelectrode resistances were 0.5-1.5 MΩ when filled with 3 M KCl. For Kv chimera channel experiments, the external recording solution contained (mM): 50 KCl, 50 NaCl, 5 HEPES, 1 MgCl2, and 0.3 CaCl2, pH 7.6 with NaOH. For rNav1.2a experiments, the external recording solution contained (mM): 100 NaCl, 5 HEPES, 1 MgCl2, and 1.8 CaCl2, pH 7.6 with NaOH. All experiments were performed at ˜22° C. Leak and background conductances, identified by blocking the channel with agitoxin-2 (provided by K. J. Swartz), have been subtracted for all of the Kv channel currents shown. […] Voltage-activation relationships were obtained by measuring tail currents for Kv channels or steady-state currents and calculating conductance for Nav channels, and a single Boltzmann function was fitted to the data according to I/Imax=[1c+cexp(−zF(Vc−cV1/2)/RT)]^−1, where I/Imax is the normalized tail-current amplitude, z is the equivalent charge, V1/2 is the half-activation voltage, F is Faraday's constant, R is the gas constant, and T is temperature in kelvin. For all channels, voltage-activation relationships were recorded in the absence and presence of toxin. The ratio of currents (I/I0) recorded in the presence (I) and absence (I0) of toxin was calculated for voltages typically ranging from −140 to 10 cmV, depending on the construct. […] The apparent equilibrium dissociation constant (apparent KD) for Kv channels was calculated according to KD=((1/(1c−cFu^1/4))c−c1)[toxin], assuming four independent toxin-binding sites per channel. Results are given as mean±SEM unless noted otherwise. Offline data analysis was performed using Clampfit 10™ (Molecular Devices), Origin 8.0™ (OriginLab), and Excel™ (Microsoft). All chemicals were obtained from Sigma-Aldrich.
Representative sodium currents were elicited by a 50-ms depolarization to a suitable membrane voltage (−20 to −15 mV) before (black) and after toxin addition (green) from a holding voltage of −90 mV. […] For each toxin, K^+ currents were elicited by a 300-ms depolarization to 0 mV from a holding voltage of −90 mV (tail voltage was −60 mV). […] For each toxin, K^+ currents (top) were elicited by a 300-ms depolarization near the foot of the voltage-activation curve (bottom) from a holding voltage of −90 mV.

Chain of rNav1.2a/Kv2.1 VSD IV chimera containing the R1629A/L1630A substitutions (P04775 1605-1636 R1629A/L1630A limits assumed): as the sequence (P04775 1605-1636 R1629A limits assumed) above, with L26A counted along it
Chain of rNav1.2a/Kv2.1 VSD IV chimera L1630A (P04775 1605-1636 L1630A limits assumed): as the sequence (P04775 1605-1636 R1629A limits assumed) above, with A25R, L26A counted along it

B1: AaHII: Nav channel-selective α-scorpion toxin from Androctonus australis hector; model toxin (protein)
chain: VKDGYIVDDVNCTYFCGRNAYCNEECTKLKGESGYCQWASPYGNACYCYKLPDHVRTKGPGRCH
For B1, the “inhibition of the double mutant channel” value ([1]; 100 nM toxin) is given as “strongly inhibits”, the Kd ([1]; read-out: apparent KD) is given as 193 ± 42 nM and the Kd [2] is given as 205 ± 23 nM. For the same molecule, the Kd [3] was 235 ± 24 nM, the “effect on rNav1.2a fast inactivation” value (rNav1.2a; 50-ms test pulse) was “inhibits rNav1.2a fast inactivation” and the “fast inactivation time constant (τ) after toxin application” value (rNav1.2a; single-exponential fit of current decay, n=3, mean±SEM) was 4.9±0.1.
